Our source for the EC50 of peptide values is US20210388079A1 (published 2021).

Assay [1] addresses T1, Serine protease inhibitor Kazal-type 2 (SPINK2); peptide SPINK2-001 peptide on HLA-A*02:01 (human).
T1 peptide: ALSVLRLAL
The assay is described as follows: IFNγ release; T2 cells loaded with 10 µM to 10 pM peptide (FIG. 27); full-length, on cells.

The target in assay [2] is T1, Serine protease inhibitor Kazal-type 2 …. The assay can be described thus: IFNγ release; T2 cells loaded with 10 µM to 10 pM peptide (FIG. 23); full-length, on cells.
For assay [3] the target is unchanged. The assay can be described thus: IFNγ release; T2 cells loaded with 10 µM to 10 pM peptide (FIG. 28); full-length, on cells.
Assay [4] has the same target. The assay can be described thus: IFNγ release; T2 cells loaded with 10 µM to 10 pM peptide (FIG. 30); full-length, on cells.

B1: R44P3E7 (TCR, V domains shown)
Valpha: GEDVEQSLFLSVREGDSSVINCTYTDSSSTYLYWYKQEPGAGLQLLTYIFSNMDMKQDQRLTVLLNKKDKHLSLRIADTQTGDSAIYFCAEINNNARLMFGDGTQLVVKP
Vbeta: AAGVIQSPRHLIKEKRETATLKCYPIPRHDTVYWYQQGPGQDPQFLISFYEKMQSDKGSIPDRFSAQQFSDYHSELNMSSLELGDSALYFCASSPPDQNTQYFGPGTRLTVL
Consider B1, for which, in assay [1], the EC50 of peptide amounted to 0.86 nM.

B2: R40P1C2 (TCR, V domains shown)
Valpha: AQTVTQSQPEMSVQEAETVTLSCTYDTSESDYYLFWYKQPPSRQMILVIRQEAYKQQNATENRFSVNFQKAAKSFSLKISDSQLGDAAMYFCAYLNYQLIWGAGTKLIIKP
Vbeta: EPEVTQTPSHQVTQMGQEVILRCVPISNHLYFYWYRQILGQKVEFLVSFYNNEISEKSEIFDDQFSVERPDGSNFTLKIRSTKLEDSAMYFCASSEMTAVGQYFGPGTRLTVT
Take B2: in assay [2], the EC50 of peptide amounted to 1.94 nM.

B3: R49P2B7 (TCR, V domains shown)
Valpha: AQSVTQLGSHVSVSEGALVLLRCNYSSSVPPYLFWYVQYPNQGLQLLLKYTTGATLVKGINGFEAEFKKSETSFHLTKPSAHMSDAAEYFCAVRIFGNEKLTFGTGTRLTIIP
Vbeta: DVKVTQSSRYLVKRTGEKVFLECVQDMDHENMFWYRQDPGLGLRLIYFSYDVKMKEKGDIPEGYSVSREKKERFSLILESASTNQTSMYLCASSLMGELTGELFFGEGSRLTVL
As for B3, in assay [3], the EC50 of peptide is over 83.2 nM.

B4: R59P2A7 (TCR, V domains shown)
Valpha: QKEVEQNSGPLSVPEGAIASLNCTYSDRGSQSFFWYRQYSGKSPELIMSIYSNGDKEDGRFTAQLNKASQYVSLLIRDSQPSDSATYLCAVQPHDMRFGAGTRLTVKP
Vbeta: SQTIHQWPATLVQPVGSPLSLECTVEGTSNPNLYWYRQAAGRGLQLLFYSVGIGQISSEVPQNLSASRPQDRQFILSSKKLLLSDSGFYLCAWSGLVAEQFFGPGTRLTVL
Molecule B4 came in with an EC50 of peptide in assay [4] of 0.86 nM.
